Source: article PMC6182156

Tests used:
Test in all cases: native gel or EMSA
[1] = target: 12N200 nucleosome array assembled with linker histone H1.4 (UniProt P10412)
[2] = target: N203 mononucleosome with a stoichiometric amount of linker histone H1.4 (UniProt P10412)
[3] = target: H2A.Z/H3K9cme3 12N200 nucleosome array (UniProt P0C0S5)
[4] = target: 12 x 200 x 601 (12N200) nucleosome array, unmodified histones
[5] = target: symmetric 203 bp mononucleosome (N203), unmodified histones
[6] = target: H2A.Z/H3K9cme3 12N200 nucleosome array saturated with H1.4 (UniProt P0C0S5)
[7] = target: 147 bp nucleosome core particle (N147), unmodified histones

“HP1α (Heterochromatin Protein 1 alpha), wild type (from UniProt P45973 1-191) (natural protein)” showed a K1/2 [1] of 2.15 µM, a K1/2 [2] of 1.26 µM and a K1/2 [3] of 0.23 µM. It also gave a K1/2 [4] of 0.71 µM, a K1/2 [5] of 0.58 µM and a K1/2 [6] of 1.15 µM. The K1/2 [7] was 2.29 µM.
